According to patent US7271245B2, “Methods and compositions for inhibition of metastasis” (The Scripps Research Institute, priority 2004, dated 2007):

Legend:
[1] = tested on: BMS human breast cancer cells; test: Experimental metastasis in vivo (lung colonization); design: species or system mouse
Protocol: FIGS. 5A, 5B, 5C. ScFvs Bc-12 and Bc-15 prevent hematogenous breast cancer metastasis. (A) Left: Lungs of female SCID mice 32 days after i.v. injection with 1×10^5 BMS human breast cancer cells. The mice were treated with 50 μg Bc-12 or Bc-15 in 100 μl PBS (i.v.) on days 1, 2, 3 and 4. Controls received PBS only. Right: Numbers of lung surface metastases for each animal, horizontal lines indicate the median number of metastases per group. […] (B) Left: Histological sections of the above mouse lungs, stained with hematoxylin/eosin. Metastases were counted in six sets of three consecutive sections separated by 140 μm for each lung. Right: Number of metastases counted in sections of individual lungs, horizontal lines indicate median number of metastases per animal group. […] (C) Effect of Bc-15 treatment on established breast cancer metastasis in the lungs. Female SCID mice were injected i.v. with 5×10^5 DsRed2-tagged MDA-MB 435 breast cancer cells expressing constitutively activated integrin αvβ3D723R. Mice were treated on day 7, 9, 11 and 14, 16, 18 by i.v. injections of scFv Bc-15 or its RGE mutant, Mut-15 (40 μg/dose). Metastatic foci were enumerated by fluorescence microscopy on day 19. Left: Images of typical tumor foci within the lung tissue in Mut-15 (top) or Bc-15 treated mice (bottom) (bar: 50 μm). Right: Number of metastatic foci within the lung tissue of each animal, horizontal line: median number of metastases per group.
Experimental metastasis in vivo. 1×10^5 BMS human metastatic breast cancer cells were injected into the lateral tail veins of 9 week old female C.B17/lcrTac-Prkdc scid mice (Taconic Farms) (n=8 to 10) together with a 50 μg bolus dose of scFv. I.v. Injections of 50 μg scFv bolus doses were repeated on days 2, 3 and 4 of the experiment. Control animals received vehicle only (PBS). For in vivo use, endotoxin was removed from scFv preparations on Detoxy-Gel resin (Pierce). Remaining traces ranged from 0.001 to 0.07 EU endotoxin/mg scFv (LAL test, Bio Whittaker). On day 32, mice were euthanized, dissected, the lungs excised, fixed in Bouin's solution, and metastatic foci counted at the lung surface under a dissecting microscope. The same lungs were embedded in paraffin, and 10 μm sections were cut and stained with hematoxylin/eosin. Per lung, 7 sets of three consecutive sections were collected, separated by 140 μm. The sections were randomized and coded, and the total number of metastatic foci counted.
To test directly whether targeting activated integrin αvβ3 with the ligand mimetic antibodies Bc-12 and-15 affects target organ colonization by circulating metastatic breast cancer cells, 1×10^5 BMS human breast cancer cells were injected intravenously into female C.B-17 SCID mice, together with 50 μg sterile, endotoxin free preparations of Bc-12 or Bc-15 (n=8-10 mice per group). At an average blood volume of 2 ml per mouse, this provides an initial scFv concentration of 1 μM. The clearance time for scFv antibody fragments in the circulation is less than 1 h. Kortt et al., Biomol. Eng, 18: 95-108, 2001. Tumor cells may remain in the circulation for several days. Therefore, scFv antibody injections (50 μg bolus doses, i.v.) were repeated on the second, third and fourth day. […] After 32 days, the mice were euthanized, dissected and analyzed by gross examination. […] The lungs were excised, fixed, and metastatic foci counted at the lung surface. Each of the control treated mice had tumor foci on their lungs (range: 8 to 68 foci per lung). In stark contrast, only two animals in the Bc-12 treated group, and 1 animal in the Bc-15 treated group had one visible nodule at their lung surface (FIG. 5A).
Per lung, six sets of three consecutive sections, separated by 140 μm, were collected. The sections were randomized and coded, and the total number of metastatic foci counted. All control animals had metastases in their lung tissues (range: 7 to 48 counts per lung), and those were of considerable size (FIG. 5B top image). […]

BMS breast cancer cells = test: Antibody internalization (confocal microscopy); type: cell-based, human; conditions: FITC-labeled scFv, permissive temperature (37° C.)
Protocol: FIGS. 3A, 3B, 3C, 3D, 3E. scFv Bc-12 and Bc-15 inhibit αvβ3 mediated adhesive breast cancer cell functions. (A) Adhesion of BMS human breast cancer cells to fibrinogen (Fg), vitronectin (VN) or type I collagen (Col I) in the absence or presence of 3 μM Bc-12, Bc-15 or their RGE mutants Mut-12, Mut-15, compared to 200 μM GRGDSPK peptide (SEQ ID NO: 11). Protein coating concentrations: 10 μg/ml (VN, Col I) or 20 μg/ml (Fg). Adhesion time: 30 min at 37° C. (B) Effect of scFvs on haptotactic BMS cell migration toward a fibrinogen substrate (16 hrs at 37° C. in transwell chambers with or without 2 μM Bc-12, Bc-15 or their RGE mutants Mut-12 or Mut-15, compared to 200 μM GRGDSPK peptide) (SEQ ID NO: 11). (C) Effect of scFvs on breast cancer cell arrest during blood flow. […] Tumor cell adhesion was quantified by image acquisition at 30 predefined positions during blood flow. Left: representative images of platelet signal (thrombi, green fluorescence) and tumor cell signal (red fluorescence) at identical x,y positions. […]
Antibody internalization. Breast cancer cells grown in chamber slide wells were incubated with 20 μg/ml FITC-labeled scFv in serum free EMEM for 3 h either at 4° C. or 37° C., washed 10 times, fixed and permeabilized with 95% ethanol, stained with propidium iodide, mounted in antifade solution, and analyzed with a laser scanning confocal microscope.

B1: Bc-12: patient derived human scFv antibody against activated αvβ3 with RGD motif in CDR-H3; cDNA ATCC PTA-6303 (protein)
scFv: MAQVQLVQSGAEVKKPGASVKVSCKASGYTFSNYGITWVRQAPGQGLEWMGWINNGNTHYAQKFQGRVTMTTDTSTSTAYMELRSLRSDDTAVYYCARDPRGDDEPYWGQGTLVTVSSGGGGSGGGGSGGGGSEIVLTQSPLSLPVTLGQPASISCRSSQNLVYSDGNTYLSWFQQRPGQSPRRLIYKVSNRDSGVPDRFSGSGSGTDFTLKISRVEAEDIGVYYCMQGTHWPPRTFGQGTKVEIKRGLGGLVDYKDDDDK
In the case of B1, the “health status during the experiment” value ([1]; 50 μg i.v. days 1-4, 32 days) is reported as “appeared healthy”, the “number of lung surface metastases versus PBS control” value ([1]; 50 μg i.v. days 1-4, day 32, P<0.001 Kruskal Wallis) is reported as “significantly fewer metastases” and the “number of metastases in lung sections versus PBS control” value ([1]; P<0.005 Kruskal Wallis) is reported as “significantly fewer detectable metastases”. The “animals with one visible nodule at lung surface” value ([1]; SCID mice, 50 μg i.v. days 1-4, day 32, n=8-10 per group, controls 8 to 68 foci per lung) was “two”, the “gross examination at dissection” value ([1]; day 32) was “No obvious abnormalities” and the “mice with microscopically detectable metastases in lung tissue” value ([1]; histological sections, day 32, all controls positive) was 3 of 10. For the same molecule, the “binding and internalization by adherent cells” value (BMS breast cancer cells) was “efficiently bound and readily internalized”.
